The data set deals with Escherichia coli TOP10. The data set is described as follows: shrunken log2 fold change of peptide-encoding DNA abundance (4.5 h post-induction vs induction); higher = less antimicrobial activity (less host growth inhibition). The note with it: time post-induction: 4.5 h; library: site-saturation at positions 5, 18, 19, 20.

Consider 125 sequences from the supplement of paper PMC9112550, “Optimization of the antimicrobial peptide Bac7 by deep mutational scanning” (BMC Biology, 2022).
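Also: peptides expressed intracellularly from a pBAD plasmid library in pooled LB shake-flask culture, induced with 0.3% L-arabinose, DNA abundance read by NGS, three biological replicates, DESeq2 with apeglm shrinkage.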

As to RRIRTRPPRLPRPRPRPARCPRP, the “shrunken log2 fold change” value worked out at 0.324.

As for RRIRTRPPRLPRPRPRPARYPRP, the “shrunken log2 fold change” value turned out to be 0.189. The figure for RRIRARPPRLPRPRPRPWELPRP is 0.0412; for RRIRGRPPRLPRPRPRPKDHPRP it is 0.465. Next, RRIRWRPPRLPRPRPRPIIYPRP: -0.327; RRIRARPPRLPRPRPRPQRQPRP: 0.24. Next, RRIRIRPPRLPRPRPRPGPQPRP: 0.0436; RRIRIRPPRLPRPRPRPDFWPRP: 0.0448; RRIRDRPPRLPRPRPRPYIDPRP: -0.0251. Turning to RRIRDRPPRLPRPRPRPWKFPRP, the “shrunken log2 fold change” value was 0.0062. The figure for RRIRFRPPRLPRPRPRPPKQPRP is 0.226; for RRIRLRPPRLPRPRPRPGDNPRP it is 0.0735; for RRIRYRPPRLPRPRPRPSESPRP it is -0.0299. Next, RRIRDRPPRLPRPRPRPYIVPRP: 0.0363.

With RRIRMRPPRLPRPRPRPAMCPRP, the “shrunken log2 fold change” value worked out at 0.124.

RRIRTRPPRLPRPRPRPKGKPRP: the “shrunken log2 fold change” value came out at 0.34.

As to RRIRGRPPRLPRPRPRPGCDPRP, the “shrunken log2 fold change” value is 1.26. The figure for RRIRQRPPRLPRPRPRPNDWPRP is 0.142; for RRIRHRPPRLPRPRPRPKLYPRP it is 0.0366. The figure for RRIRWRPPRLPRPRPRPMRIPRP is 0.222; for RRIRLRPPRLPRPRPRPEMHPRP it is -0.132. The figure for RRIRPRPPRLPRPRPRPQFMPRP is -0.259. Take RRIRDRPPRLPRPRPRPLVVPRP: the “shrunken log2 fold change” value worked out at 0.102. The figure for RRIRWRPPRLPRPRPRPMTMPRP is -0.385. For the sequence RRIRQRPPRLPRPRPRPQQPPRP, the “shrunken log2 fold change” value is 0.00789. The figure for RRIRMRPPRLPRPRPRPRYCPRP is -0.164.

Turning to RRIRTRPPRLPRPRPRPLAKPRP, the “shrunken log2 fold change” value was 0.0419. Turning to RRIRNRPPRLPRPRPRPSFEPRP, the “shrunken log2 fold change” value was -0.0494.

As for RRIRYRPPRLPRPRPRPTLSPRP, the “shrunken log2 fold change” value is -0.0535. Next, RRIRARPPRLPRPRPRPTTPPRP: 0.605. Next, RRIRHRPPRLPRPRPRPNWAPRP: -0.0735; RRIRIRPPRLPRPRPRPGKTPRP: -0.126; RRIRTRPPRLPRPRPRPHQQPRP: -0.0314.

In the case of RRIRYRPPRLPRPRPRPIMHPRP, the “shrunken log2 fold change” value is -0.483. The figure for RRIRMRPPRLPRPRPRPDLKPRP is 0.751.

Take RRIRRRPPRLPRPRPRPNSDPRP: the “shrunken log2 fold change” value was -0.17.

Turning to RRIRTRPPRLPRPRPRPVIEPRP, the “shrunken log2 fold change” value is -0.408.

For the sequence RRIRSRPPRLPRPRPRPTCVPRP, the “shrunken log2 fold change” value came out at 0.0671.

Take RRIRIRPPRLPRPRPRPNDHPRP: the “shrunken log2 fold change” value is -0.569. The figure for RRIRPRPPRLPRPRPRPGKEPRP is 0.0995. Next, RRIRGRPPRLPRPRPRPPSDPRP: 1.05; RRIRWRPPRLPRPRPRPKECPRP: 0.236. For the sequence RRIRFRPPRLPRPRPRPCWLPRP, the “shrunken log2 fold change” value was -0.165. Take RRIRLRPPRLPRPRPRPLICPRP: the “shrunken log2 fold change” value was determined as 0.128.

Consider RRIRMRPPRLPRPRPRPQKAPRP, for which the “shrunken log2 fold change” value was 0.0203. The figure for RRIRRRPPRLPRPRPRPGFGPRP is 0.497. Turning to RRIRMRPPRLPRPRPRPQGTPRP, the “shrunken log2 fold change” value was -0.000856. In the case of RRIRQRPPRLPRPRPRPMNPPRP, the “shrunken log2 fold change” value was -0.0843. Regarding RRIRTRPPRLPRPRPRPGTKPRP, the “shrunken log2 fold change” value was -0.122. Consider RRIRARPPRLPRPRPRPRDMPRP, for which the “shrunken log2 fold change” value was 1.52.

Turning to RRIRWRPPRLPRPRPRPGYMPRP, the “shrunken log2 fold change” value is -0.288. The figure for RRIRFRPPRLPRPRPRPKNRPRP is -0.284. Take RRIRCRPPRLPRPRPRPNYLPRP: the “shrunken log2 fold change” value was -0.797. Regarding RRIRWRPPRLPRPRPRPMQNPRP, the “shrunken log2 fold change” value is 0.459. The figure for RRIRARPPRLPRPRPRPAKCPRP is -6.11e-05; for RRIRDRPPRLPRPRPRPAYIPRP it is -0.0656. Next, RRIRMRPPRLPRPRPRPGHKPRP: -0.231; RRIRHRPPRLPRPRPRPYIQPRP: -0.73; RRIRTRPPRLPRPRPRPCKNPRP: -0.33. Next, RRIRARPPRLPRPRPRPDGQPRP: 0.0234; RRIRLRPPRLPRPRPRPNCDPRP: -0.00298. In the case of RRIRCRPPRLPRPRPRPTILPRP, the “shrunken log2 fold change” value is -0.646. Next, RRIRHRPPRLPRPRPRPPPQPRP: 0.844; RRIRGRPPRLPRPRPRPIFFPRP: 0.237.

On to RRIRKRPPRLPRPRPRPHITPRP, for which the “shrunken log2 fold change” value was -0.167. As to RRIRSRPPRLPRPRPRPSSAPRP, the “shrunken log2 fold change” value was -0.0109. Next, RRIRTRPPRLPRPRPRPTVSPRP: 0.077; RRIRPRPPRLPRPRPRPYKLPRP: -0.313; RRIRKRPPRLPRPRPRPLGDPRP: 0.227.

For the sequence RRIRPRPPRLPRPRPRPINEPRP, the “shrunken log2 fold change” value was -0.54.

In the case of RRIRMRPPRLPRPRPRPHKDPRP, the “shrunken log2 fold change” value is -0.0811.

For RRIRRRPPRLPRPRPRPPDEPRP, the “shrunken log2 fold change” value is 0.726. The figure for RRIRDRPPRLPRPRPRPTHLPRP is -0.175; for RRIRQRPPRLPRPRPRPWQDPRP it is 0.07; for RRIRNRPPRLPRPRPRPCNLPRP it is -0.134. In the case of RRIRWRPPRLPRPRPRPTLYPRP, the “shrunken log2 fold change” value was -0.0322. With RRIRGRPPRLPRPRPRPYTWPRP, the “shrunken log2 fold change” value is 0.0845. Next, RRIRKRPPRLPRPRPRPRNGPRP: 0.157; RRIRVRPPRLPRPRPRPPVFPRP: 0.00719.

With RRIRARPPRLPRPRPRPTFNPRP, the “shrunken log2 fold change” value turned out to be 0.0685.

As to RRIRSRPPRLPRPRPRPRQKPRP, the “shrunken log2 fold change” value is 0.29.

For RRIRMRPPRLPRPRPRPHCVPRP, the “shrunken log2 fold change” value turned out to be 0.0437.

For RRIRDRPPRLPRPRPRPWGSPRP, the “shrunken log2 fold change” value was -0.0321. RRIRNRPPRLPRPRPRPILDPRP: the “shrunken log2 fold change” value was -0.0452. For the sequence RRIRERPPRLPRPRPRPYPYPRP, the “shrunken log2 fold change” value is -0.372.

As for RRIRSRPPRLPRPRPRPCFYPRP, the “shrunken log2 fold change” value was -0.39.

As for RRIRCRPPRLPRPRPRPQFDPRP, the “shrunken log2 fold change” value was -0.211.

Turning to RRIRNRPPRLPRPRPRPAHHPRP, the “shrunken log2 fold change” value is -0.0626.

For RRIRVRPPRLPRPRPRPCLSPRP, the “shrunken log2 fold change” value was -0.153. Take RRIRTRPPRLPRPRPRPAAFPRP: the “shrunken log2 fold change” value was -0.128.

Turning to RRIRARPPRLPRPRPRPMFQPRP, the “shrunken log2 fold change” value is -0.0957. Next, RRIRARPPRLPRPRPRPEHVPRP: 0.269. RRIRPRPPRLPRPRPRPHEPPRP: the “shrunken log2 fold change” value worked out at 0.239. On to RRIRDRPPRLPRPRPRPRVSPRP, for which the “shrunken log2 fold change” value turned out to be 0.223. The figure for RRIRQRPPRLPRPRPRPDGRPRP is 0.0192. Turning to RRIRIRPPRLPRPRPRPVYPPRP, the “shrunken log2 fold change” value is -0.233. Next, RRIRWRPPRLPRPRPRPKVAPRP: 1.16.

Consider RRIRPRPPRLPRPRPRPKRGPRP, for which the “shrunken log2 fold change” value was found to be 0.484.

RRIRFRPPRLPRPRPRPGYVPRP: the “shrunken log2 fold change” value is -0.116.

With RRIRKRPPRLPRPRPRPSYTPRP, the “shrunken log2 fold change” value was -0.0235. The figure for RRIRSRPPRLPRPRPRPCMHPRP is -0.514. In the case of RRIRCRPPRLPRPRPRPHMCPRP, the “shrunken log2 fold change” value amounted to 0.099.

For the sequence RRIRHRPPRLPRPRPRPLKFPRP, the “shrunken log2 fold change” value was -0.298. On to RRIRSRPPRLPRPRPRPMQCPRP, for which the “shrunken log2 fold change” value is -0.0018. For the sequence RRIRTRPPRLPRPRPRPMVSPRP, the “shrunken log2 fold change” value is -0.0669. The figure for RRIRFRPPRLPRPRPRPCTEPRP is -0.431; for RRIRVRPPRLPRPRPRPPWKPRP it is -0.0783; for RRIRRRPPRLPRPRPRPCPYPRP it is 0.0825. The figure for RRIRSRPPRLPRPRPRPEQEPRP is 0.0257; for RRIRWRPPRLPRPRPRPVISPRP it is -0.0992; for RRIRYRPPRLPRPRPRPFTPPRP it is -0.889. As for RRIRMRPPRLPRPRPRPKLHPRP, the “shrunken log2 fold change” value worked out at 0.325. Regarding RRIRWRPPRLPRPRPRPLKCPRP, the “shrunken log2 fold change” value was determined as 0.0309. Next, RRIRPRPPRLPRPRPRPAIYPRP: -0.017; RRIRDRPPRLPRPRPRPEPQPRP: 0.0781; RRIRNRPPRLPRPRPRPTDRPRP: 0.0372. Next, RRIRTRPPRLPRPRPRPEMSPRP: -0.145. Next, RRIRTRPPRLPRPRPRPGIYPRP: -0.279. Regarding RRIRWRPPRLPRPRPRPMAKPRP, the “shrunken log2 fold change” value came out at 0.148. The figure for RRIRWRPPRLPRPRPRPPLTPRP is 0.432; for RRIRMRPPRLPRPRPRPSESPRP it is -0.01. For the sequence RRIRKRPPRLPRPRPRPHWHPRP, the “shrunken log2 fold change” value is -0.0666.

Turning to RRIRARPPRLPRPRPRPTAIPRP, the “shrunken log2 fold change” value was 0.977.

With RRIRERPPRLPRPRPRPDRLPRP, the “shrunken log2 fold change” value is -0.147. RRIRGRPPRLPRPRPRPSMCPRP: the “shrunken log2 fold change” value came out at 0.37.
